This note sets out measurements from US11554097B2, “Recombinant production of hybrid lipid-biopolymer materials that self-assemble and encapsulate agents” (Duke University, priority 2017, dated 2023).

Marks after values point to notes of the source that are not given here. Some results are limits rather than exact numbers.

Assay type in all cases: physicochemical
Data set [1] is described as follows: Dynamic and static light scattering of self-assembled M-ELPs. Conditions: for Hydrodynamic Radius, Day 0, Rh: Day 0, freshly filtered; for Hydrodynamic Radius, Day 0, Rh / Second Virial Coefficient A2 / Shape Factor, ρ, Rg/Rh: PBS; for Second Virial Coefficient A2 / Shape Factor, ρ, Rg/Rh: full Zimm plots; for Aggregation Number, Nagg, MWparticle/Munimer: partial Zimm plots, Day 0; for hydrodynamic radius (Rh) by DLS: filtered samples in PBS at 25° C. Here is the method: Characterization of myristoylated and non-myristoylated ELPs: Dynamic light scattering (DLS) studies were carried out to investigate the self-assembly of various myristoylated ELPs in aqueous solution. Prior to analysis, samples were prepared in PBS at a concentration of 50 μM, and filtered through a 0.22 μm polyvinylidene fluoride membrane (Durapore) directly into a quartz DLS cell. DLS experiments were conducted in a temperature-controlled DynaPro Microsampler (Wyatt Technologies). Measurements were obtained over a temperature range of 15 to 20° C. using 1° C. steps and at 25° C. 18 acquisitions of 5 s each were collected for every temperature point. Autocorrelation intensities at 15° C. were fitted using the regularization model and then depicted as a population size distribution histogram (FIG. 13) and intensity size distribution (FIG. 14) using Wyatt Dynamics software.
Static light scattering (SLS) studies were carried out to quantify the Rg, Rh, and Nagg of myristoylated ELPs in aqueous solution. Samples were prepared in PBS at concentration ranging from 0.5-5 mg/mL and filtered through a 0.22 μm polyvinylidene fluoride membrane (Durapore) directly into a 10 mm, disposable borosilicate glass tube (Fisher Scientific). Experiments were performed using an ALV/CGS-3 goniometer system (Germany). For M-ELP90A,120 and M-ELP90A,80, as well as for M-ELP90A,40 and M-ELP100V,40 at early time points, measurements were obtained at 25° C. for angles between 30 and 150° C. and made at 5° C. increments with 3 runs of 10 s. Smaller angles (20-45° C.) were used to measure the 40-mer ELPs at later time points, after they had matured to their larger rod-like shape. Full Zimm plots were created by conducting SLS for each construct at different concentrations ranging from 25 μM to 100 μM. These Zimm plots were created using SLS data and ALVStat software after the refractive index increment (dn/dc) was calculated (FIG. 15). These plots provided the second virial coefficient and Rg and from which shape factor was calculated (TABLE 1). Partial Zimm plots were used to calculate Nagg at 1 mg/mL.

The nature of data set [2]: Cryo-TEM imaging of self-assembled structures. As to conditions: PBS, filtered. Here is the method: Cryo-transmission electron microscopy (TEM) experiments were performed at Duke University's Shared Materials Instrumentation Facility and at Thermo Fisher Scientific (Formerly FEI). Lacey holey carbon grids (Ted Pella, Redding, Calif.) were glow discharged in a PELCO EasiGlow Cleaning System (Ted Pella, Redding, Calif.). After filtering the samples, a 3 μL drop (1 mg/mL of each construct) at 25° C. (below the Tt for M-ELP constructs) was deposited onto the grid, blotted for 3 s with an offset of −3 mm, and vitrified in liquid ethane using the Vitrobot Mark III (FEI, Eindhoven, Netherlands). The sample chamber was maintained at 100% relative humidity to prevent sample evaporation. Grids were transferred to a Gatan 626 cryoholder (Gatan, Pleasanton, Calif.) and imaged with an FEI Tecnai G^2 Twin TEM (FEI, Eindhoven, Netherlands), which was operated at 80 keV.

Data set [3] is described as follows: DLS kinetics study of self-assembly. Conditions: 50 μM in PBS, room temperature, after filtering. Here is the method: Thus, we wanted to take more frequent light scattering measurements to track their changing size. Larger particles scatter more light, thus, we tracked intensity via DLS to monitor the size of the 40-mer M-ELPs' self-assembly.
The 40-mer M-ELPs were prepared at 50 μM in PBS and filtered directly into the instrument's quartz cell. The instrument was pre-set to room temperature and, immediately after filtering, the sample was measured periodically over 24 h for both constructs and out to 1 week for M-ELP90A,40. While M-ELP90A,40 takes 144-168 h to reach equilibrium (FIG. 17A), M-ELP100V,40 appears to do so more quickly, by 24 h after filtering (FIG. 17B).

Data set [4] is described as follows: UV-Vis turbidity, temperature-triggered LCST phase transition. Here is the method:
We investigated the temperature-triggered phase-transition of each construct by recording the optical density of the protein solution at 350 nm as the temperature is ramped up and down on a temperature-controlled UV-Vis spectrophotometer (Cary 300 Bio, Varian Instruments, Palo Alto, Calif.) (FIG. 10-FIG. 12). The transition temperature (T) is defined as the inflection point of the turbidity profile and was calculated as the maximum of the first derivative of OD350 versus temperature, which was determined using Igor Pro software (FIG. 10). Turbidity profiles for each sample were measured in PBS at concentrations between 12.5 and 250 μM. For the non-myristoylated control sample, ELP90A,40, the transition temperatures at these concentrations were well above 80° C. Consequently, their […] values were monitored in 1 M NaCl, which served to reduce the T into a temperature range that is experimentally accessible.
We next used UV-vis spectrophotometry to evaluate whether the lipid-ELP hybrid retained the LCST phase behavior of its parent ELP. The absorbance at 350 nm was monitored as the solution temperature was ramped up and then down at a rate of 1° C./min. […] The transition temperature (Tt) is defined as the inflection point of absorbance versus temperature, calculated as the maximum of the curve's first derivative (FIG. 2D, arrow).

B1: M-ELP90A,80: myristoylated ELP, same composition (90% alanine, 10% valine), 80 pentapeptide repeats (SEQ ID NO: 35) (conjugate)
chain: MGLYASKLFSNLGAGVPGAGVPGVGVPGAGVPGAGVPGAGVPGAGVPGAGVPGAGVPGAGVPGAGVPGAGVPGVGVPGAGVPGAGVPGAGVPGAGVPGAGVPGAGVPGAGVPGAGVPGAGVPGVGVPGAGVPGAGVPGAGVPGAGVPGAGVPGAGVPGAGVPGAGVPGAGVPGVGVPGAGVPGAGVPGAGVPGAGVPGAGVPGAGVPGAGVPGAGVPGAGVPGVGVPGAGVPGAGVPGAGVPGAGVPGAGVPGAGVPGAGVPGAGVPGAGVPGVGVPGAGVPGAGVPGAGVPGAGVPGAGVPGAGVPGAGVPGAGVPGAGVPGVGVPGAGVPGAGVPGAGVPGAGVPGAGVPGAGVPGAGVPGAGVPGAGVPGVGVPGAGVPGAGVPGAGVPGAGVPGAGVPGAGVPGAGVPG
modifications: N-terminal myristoylation
Consider B1, for which, in data set [1], the “Refractive Index Increment dn/dc” value was found to be 0.1660 cm^3 g^−1; the “Hydrodynamic Radius, Day 0, Rh” value was 31.2 nm; the “Second Virial Coefficient A2” value is −5.58 × 10^−9 mol dm^3 g^−2; the “Shape Factor, ρ, Rg/Rh” value is 1.00. Besides, the “Aggregation Number, Nagg, MWparticle/Munimer” value in data set [1] turned out to be 48. Moreover, the “morphology of self-assembled structure” value in data set [2] is reported as “spherical micelles”.

B2: M-ELP100V,40: myristoylated ELP with 40 repeats of VPGXG where X is 100% valine (SEQ ID NO: 37) (conjugate)
chain: MGLYASKLFSNLGVGVPGVGVPGVGVPGVGVPGVGVPGVGVPGVGVPGVGVPGVGVPGVGVPGVGVPGVGVPGVGVPGVGVPGVGVPGVGVPGVGVPGVGVPGVGVPGVGVPGVGVPGVGVPGVGVPGVGVPGVGVPGVGVPGVGVPGVGVPGVGVPGVGVPGVGVPGVGVPGVGVPGVGVPGVGVPGVGVPGVGVPGVGVPGVGVPGVGVPG
modifications: N-terminal myristoylation
Regarding B2, in data set [1], the “Refractive Index Increment dn/dc” value is reported as 0.1258 cm^3 g^−1; the “Hydrodynamic Radius, Day 0, Rh” value is on record as 80.3 nm; the “Shape Factor, ρ, Rg/Rh” value was found to be 1.30; the “Aggregation Number, Nagg, MWparticle/Munimer” value is reported as 201^b. Besides, the “morphology of self-assembled structure” value in data set [2] is “rod-like micelles”. Further, the “time to reach equilibrium of self-assembly” value in data set [3] was ≤ 24 h.

B3: ELP90A,40: non-myristoylated control sample, 40 repeats (SEQ ID NO: 36) (protein)
chain: MGLYASKLFSNLGAGVPGAGVPGVGVPGAGVPGAGVPGAGVPGAGVPGAGVPGAGVPGAGVPGAGVPGAGVPGVGVPGAGVPGAGVPGAGVPGAGVPGAGVPGAGVPGAGVPGAGVPGAGVPGVGVPGAGVPGAGVPGAGVPGAGVPGAGVPGAGVPGAGVPGAGVPGAGVPGVGVPGAGVPGAGVPGAGVPGAGVPGAGVPGAGVPGAGVPG
On to B3, for which the “transition temperature (Tt)” value in data set [4] (PBS, 12.5 to 250 μM) was “above 80 °C”.

B4: M-ELP90A,40: myristoylated ELP, 90% alanine, 10% valine, 40 pentapeptide repeats (SEQ ID NO: 36) (conjugate)
chain: B3 chain
modifications: N-terminal myristoylation
B4: in data set [1], the “Refractive Index Increment dn/dc” value came out at 0.1669 cm^3 g^−1; the “Hydrodynamic Radius, Day 0, Rh” value was determined as 81.9 nm; the “Second Virial Coefficient A2” value is given as −2.30 × 10^−8 mol dm^3 g^−2; the “Shape Factor, ρ, Rg/Rh” value was determined as 1.29. The “Aggregation Number, Nagg, MWparticle/Munimer” value in data set [1] was 137^b. Moreover, the “time to reach equilibrium of self-assembly” value in data set [3] is 144 to 168 h.

B5: M-ELP90A,120: myristoylated ELP: Arf2 recognition sequence fused to 120 repeats of VPGXG, X 90% alanine and 10% valine (SEQ ID NO: 34) (conjugate)
chain: MGLYASKLFSNLGAGVPGAGVPGVGVPGAGVPGAGVPGAGVPGAGVPGAGVPGAGVPGAGVPGAGVPGAGVPGVGVPGAGVPGAGVPGAGVPGAGVPGAGVPGAGVPGAGVPGAGVPGAGVPGVGVPGAGVPGAGVPGAGVPGAGVPGAGVPGAGVPGAGVPGAGVPGAGVPGVGVPGAGVPGAGVPGAGVPGAGVPGAGVPGAGVPGAGVPGAGVPGAGVPGVGVPGAGVPGAGVPGAGVPGAGVPGAGVPGAGVPGAGVPGAGVPGAGVPGVGVPGAGVPGAGVPGAGVPGAGVPGAGVPGAGVPGAGVPGAGVPGAGVPGVGVPGAGVPGAGVPGAGVPGAGVPGAGVPGAGVPGAGVPGAGVPGAGVPGVGVPGAGVPGAGVPGAGVPGAGVPGAGVPGAGVPGAGVPGAGVPGAGVPGVGVPGAGVPGAGVPGAGVPGAGVPGAGVPGAGVPGAGVPGAGVPGAGVPGVGVPGAGVPGAGVPGAGVPGAGVPGAGVPGAGVPGAGVPGAGVPGAGVPGVGVPGAGVPGAGVPGAGVPGAGVPGAGVPGAGVPGAGVPGAGVPGAGVPGVGVPGAGVPGAGVPGAGVPGAGVPGAGVPGAGVPGAGVPGY
modifications: N-terminal myristoylation
In the case of B5, in data set [4] (versus unmyristoylated ELP), the “suppression of Tt by myristoylation” value is ~20 °C. Further, in data set [1], the “Refractive Index Increment dn/dc” value was 0.1515 cm^3 g^−1; the “Hydrodynamic Radius, Day 0, Rh” value was found to be 22.7 nm; the “hydrodynamic radius (Rh) by DLS” value was ~22 nm; the “Second Virial Coefficient A2” value was −9.23 × 10^−9 mol dm^3 g^−2. For the same molecule, in data set [1], the “Shape Factor, ρ, Rg/Rh” value worked out at 0.98 and the “Aggregation Number, Nagg, MWparticle/Munimer” value is recorded as 29. In addition, the “morphology of self-assembled structure” value in data set [2] is listed as “spherical micelles”.

B6: ELP90A,120: non-myristoylated control, recognition sequence-ELP grown without NMT (SEQ ID NO: 34) (protein)
chain: B5 chain
For B6, the “hydrodynamic radius (Rh) by DLS” value in data set [1] is 6.2 nm.
